The nature of the data set: Adenosine deaminase (ADA) enzymatic activity assay kit. The settings on record: purified protein at 5 μg/mL; for % of WT activity: compared to WT-ADA2. It counts as biochemical. As for the experimental part:
Adenosine deaminase activity was determined using an adenosine deaminase (ADA) assay kit (Genway, San Diego, Calif.; Cat. No. BQ014EALD) with minor modifications. The ADA assay is based on the enzymatic deamination of adenosine to inosine, which is converted to hypoxanthine by purine nucleoside phosphorylase (PNP). Hypoxanthine is then converted to uric acid and hydrogen peroxide by xanthine oxidase (XOD). Hydrogen peroxide is further reacted with N-Ethyl-N-(2-hydroxy-3-sulfopropyl)-3-methylaniline (EHSPT) and 4-aminoantipyrine (4-AA) in the presence of peroxidase (POD) to generate quinone dye, which is monitored in a kinetic manner.
Briefly, 5 μL samples in duplicates (at appropriate dilutions to measure steady-state, non-saturating enzyme activity) were added to 120 μL R1 reagent (provided by the manufacturer; 50 mM Tris HCL, pH 8.0, 2 mM 4-AA, 0.1 U/mL PNP, 0.2 U/mL XOD, 0.6 U/mL peroxidase) in a 96 well plate, according to manufacturer's instructions. The mixtures were incubated at 37° C. for approximately 5 min and 60 μL of R2 reagent (provided by the manufacturer; 50 mM Tris HCl, pH 4.0, 10 mM Adenosine, 2 mM EHSPT) was added to the mixtures. Then, change in absorbance (AA) at 556 nm over time at 37° C. was measured. One unit of ADA is the amount of ADA that generates one μmole of inosine from adenosine per minute at 37° C. Adenosine deaminase activity in mU/mL was calculated using the following formula: 1 mU/mL=(ΔA/min×Tv)/(Sv×ϵ×1) • where Tv=total volume (185 μL), Sv=sample volume (5 μL), ϵ=32.2×10^−3 μM^−1 cm^−1, 1=0.5 cm.
Adenosine deaminase activity of WT rHuADA2 and variants tested above were determined using the adenosine deaminase activity (ADA) assay described in Example 4. Activity was assessed on purified rHuADA2 WT and variants that were diluted to 5 μg/mL, and then serially diluted 2 fold to generate 4 measurements.
Adenosine deaminase activity of PEGylated rHuADA2 and variants was assessed using the method described in Example 4, and compared to the activity of the corresponding non-PEGylated form.
Selected candidate variants described in Table 8 above, containing an amino acid substitution in a residue that play a role in enzymatic activity, were assessed for their adenosine deaminase activity using the method described in Example 4. To perform the experiments, purified WT rHuADA2 and tested variants were prepared at 5 μg/mL concentration to normalize the amount of protein in each experiment.

Substitutions are numbered along the chain they refer to. In names and notes the source's numbering stands.

B1: H267N: ADA2 variant SEQ ID NO:36 (protein)
chain: IDETRAHLLLKEKMMRLGGRLVLNTKEELANERLMTLKIAEMKEAMRTLIFPPSMHFFQAKHLIERSQVFNILRMMPKGAALHLHDIGIVTMDWLVRNVTYRPHCHICFTPRGIMQFRFAHPTPRPSEKCSKWILLEDYRKRVQNVTEFDDSLLRNFTLVTQHPEVIYTNQNVVWSKFETIFFTISGLIHYAPVFRDYVFRSMQEFYEDNVLYMEIRARLLPVYELSGEHHDEEWSVKTYQEVAQKFVETHPEFIGIKIIYSDNRSKDVAVIAESIRMAMGLRIKFPTVVAGFDLVGHEDTGHSLHDYKEALMIPAKDGVKLPYFFHAGETDWQGTSIDRNILDALMLNTTRIGHGFALSKHPAVRTYSWKKDIPIEVCPISNQVLKLVSDLRNHPVATLMATGHPMVISSDDPAMFGAKGLSYDFYEVFMGIGGMKADLRTLKQLAMNSIKYSTLLESEKNTFMEIWKKRWDKFIADVATK
modifications: human ADA2 H264N, mature numbering
In the case of B1, the “Adenosine deaminase activity mU/ml” value came to 50.4 mU/ml, the “Adenosine deaminase activity ΔA/min” value was 21.9 ΔA/min and the “% of WT activity” value came to 65%.

B2: E182T: ADA2 variant SEQ ID NO:48 (protein)
chain: B1 chain with E179T, N264H
modifications: human ADA2 E179T, mature numbering
As for B2, the “Adenosine deaminase activity mU/ml” value is recorded as 6.2 mU/ml, the “Adenosine deaminase activity ΔA/min” value is reported as 2.7 ΔA/min and the “% of WT activity” value is on record as 8%.

B3: H267A: ADA2 variant SEQ ID NO:34 (protein)
chain: B1 chain with N264A
modifications: human ADA2 H264A, mature numbering
As to B3, the “Adenosine deaminase activity mU/ml” value is 70.9 mU/ml, the “Adenosine deaminase activity ΔA/min” value is 30.8 ΔA/min and the “% of WT activity” value came out at 91%.

B4: H267G: ADA2 variant SEQ ID NO:37 (protein)
chain: B1 chain with N264G
modifications: human ADA2 H264G, mature numbering
Consider B4, for which the “Adenosine deaminase activity mU/ml” value is recorded as 119.1 mU/ml, the “Adenosine deaminase activity ΔA/min” value is recorded as 51.8 ΔA/min and the “% of WT activity” value was 153%.

B5: E182V: ADA2 variant SEQ ID NO:49 (protein)
chain: B1 chain with E179V, N264H
modifications: human ADA2 E179V, mature numbering
As to B5, the “Adenosine deaminase activity mU/ml” value stood at 8 mU/ml, the “Adenosine deaminase activity ΔA/min” value is given as 3.5 ΔA/min and the “% of WT activity” value is on record as 10%.

B6: S265V: ADA2 variant SEQ ID NO:52 (protein)
chain: B1 chain with S262V, N264H
modifications: human ADA2 S262V, mature numbering
As for B6, the “Adenosine deaminase activity mU/ml” value was determined as 66.1 mU/ml, the “Adenosine deaminase activity ΔA/min” value was 28.8 ΔA/min and the “% of WT activity” value is 85%.

B7: R222A: ADA2 variant SEQ ID NO:41 (protein)
chain: B1 chain with R219A, N264H
modifications: human ADA2 R219A, mature numbering
For B7, the “Adenosine deaminase activity mU/ml” value worked out at 31.2 mU/ml, the “Adenosine deaminase activity ΔA/min” value is 13.6 ΔA/min and the “% of WT activity” value is listed as 40%.

B8: S265M: ADA2 variant SEQ ID NO:53 (protein)
chain: B1 chain with S262M, N264H
modifications: human ADA2 S262M, mature numbering
As to B8, the “Adenosine deaminase activity mU/ml” value came to 81.6 mU/ml, the “Adenosine deaminase activity ΔA/min” value is on record as 35.5 ΔA/min and the “% of WT activity” value stood at 105%.

B9: S265A: ADA2 variant SEQ ID NO:51 (protein)
chain: B1 chain with S262A, N264H
modifications: human ADA2 S262A, mature numbering
For the molecule B9, the “Adenosine deaminase activity mU/ml” value is reported as 47.1 mU/ml, the “Adenosine deaminase activity ΔA/min” value is 20.5 ΔA/min and the “% of WT activity” value worked out at 60%.

B10: R222N: ADA2 variant SEQ ID NO:40 (protein)
chain: B1 chain with R219N, N264H
modifications: human ADA2 R219N, mature numbering
With B10, the “Adenosine deaminase activity mU/ml” value is reported as 81.5 mU/ml, the “Adenosine deaminase activity ΔA/min” value was 35.4 ΔA/min and the “% of WT activity” value amounted to 104%.

B11: R222K: ADA2 variant SEQ ID NO:38 (protein)
chain: B1 chain with R219K, N264H
modifications: human ADA2 R219K, mature numbering
As to B11, the “Adenosine deaminase activity mU/ml” value was determined as 118.5 mU/ml, the “Adenosine deaminase activity ΔA/min” value was 51.5 ΔA/min and the “% of WT activity” value worked out at 152%.

B12: L224A: ADA2 variant SEQ ID NO:42 (protein)
chain: B1 chain with L221A, N264H
modifications: human ADA2 L221A, mature numbering
In the case of B12, the “Adenosine deaminase activity mU/ml” value stood at 100.1 mU/ml, the “Adenosine deaminase activity ΔA/min” value was 43.5 ΔA/min and the “% of WT activity” value is listed as 128%.

B13: E182S: ADA2 variant SEQ ID NO:47 (protein)
chain: B1 chain with E179S, N264H
modifications: human ADA2 E179S, mature numbering
Regarding B13, the “Adenosine deaminase activity mU/ml” value stood at 9.5 mU/ml, the “Adenosine deaminase activity ΔA/min” value is 4.1 ΔA/min and the “% of WT activity” value amounted to 12%.

B14: E182D: ADA2 variant SEQ ID NO:45 (protein)
chain: B1 chain with E179D, N264H
modifications: human ADA2 E179D, mature numbering
As to B14, the “Adenosine deaminase activity mU/ml” value was found to be 18.1 mU/ml, the “Adenosine deaminase activity ΔA/min” value is reported as 7.8 ΔA/min and the “% of WT activity” value was 23%.

B15: E182A: ADA2 variant SEQ ID NO:46 (protein)
chain: B1 chain with E179A, N264H
modifications: human ADA2 E179A, mature numbering
Turning to B15, the “Adenosine deaminase activity mU/ml” value turned out to be 8.6 mU/ml, the “Adenosine deaminase activity ΔA/min” value is on record as 3.7 ΔA/min and the “% of WT activity” value came out at 11%.

B16: H267Q: ADA2 variant SEQ ID NO:35 (protein)
chain: B1 chain with N264Q
modifications: human ADA2 H264Q, mature numbering
For the molecule B16, the “Adenosine deaminase activity mU/ml” value is 89.3 mU/ml, the “Adenosine deaminase activity ΔA/min” value is reported as 38.8 ΔA/min and the “% of WT activity” value was determined as 114%.

B17: L224V: ADA2 variant SEQ ID NO:43 (protein)
chain: B1 chain with L221V, N264H
modifications: human ADA2 L221V, mature numbering
For the molecule B17, the “Adenosine deaminase activity mU/ml” value is recorded as 96.1 mU/ml, the “Adenosine deaminase activity ΔA/min” value is on record as 41.8 ΔA/min and the “% of WT activity” value is recorded as 123%.

B18: E182G: ADA2 variant SEQ ID NO:50 (protein)
chain: B1 chain with E179G, N264H
modifications: human ADA2 E179G, mature numbering
Consider B18, for which the “Adenosine deaminase activity mU/ml” value was found to be 6.9 mU/ml, the “Adenosine deaminase activity ΔA/min” value is reported as 3 ΔA/min and the “% of WT activity” value stood at 9%.

B19: L224G: ADA2 variant SEQ ID NO:44 (protein)
chain: B1 chain with L221G, N264H
modifications: human ADA2 L221G, mature numbering
For B19, the “Adenosine deaminase activity mU/ml” value came to 88.2 mU/ml, the “Adenosine deaminase activity ΔA/min” value is given as 38.3 ΔA/min and the “% of WT activity” value was determined as 113%.
